Assay results as given in US7572764B2, “Uses of chemically-modified cholinesterases for detoxification of organophosporus compounds” (priority 2001, dated 2009).

Test: Clearance experiments in mice, pharmacokinetic profiles
Description: The pharmacokinetic profiles of non-modified and various preparations of PEG-modified AChE were resolved. Clearance experiments in mice (3 to 6 ICR male mice per enzyme sample) and analysis of pharmacokinetic profiles were carried out as described essentially previously [Kronman, C., et al. (1992), Gene 121, 295-304]. The study was approved by the local ethical committee on animal experiments. Mice were injected with the various rHuAChE preparations (40 μg/mouse in 0.2 ml PBS). Residual AChE activity in blood samples was measured and all values were corrected for background hydrolytic activity in the blood (using samples withdrawn 1 hour before performing the experiment). AChE activity values in samples removed immediately after injection were assigned a value of 100% and used for calculation of residual activity. […] This model enables determination of the parameters A and B which represent the fractions of the material removed from the circulation in the first-fast and second-slow elimination phases respectively, and T1/2α and T1/2β which represent the circulatory half-life values of the enzyme in the fast and slow phases. The pharmacokinetic parameters MRT (mean residence time, which reflects the average length of time the administered molecules are retained in the organism) and CL (clearance, which represents the proportionality factor relating the rate of substance elimination to its plasma concentration (CL=dose/area under the concentration-time curve), were independently obtained by analyzing the clearance data according to a noncompartmental pharmacokinetic model using the WinNonlin computer program. The comparative results are set forth in Table 3 below.

B1: AChE-PEG-5000 high ratio (conjugate, UniProt P22303 32-614, looked up)
Acetylcholinesterase: EGREDAELLVTVRGGRLRGIRLKTPGGPVSAFLGIPFAEPPMGPRRFLPPEPKQPWSGVVDATTFQSVCYQYVDTLYPGFEGTEMWNPNRELSEDCLYLNVWTPYPRPTSPTPVLVWIYGGGFYSGASSLDVYDGRFLVQAERTVLVSMNYRVGAFGFLALPGSREAPGNVGLLDQRLALQWVQENVAAFGGDPTSVTLFGESAGAASVGMHLLSPPSRGLFHRAVLQSGAPNGPWATVGMGEARRRATQLAHLVGCPPGGTGGNDTELVACLRTRPAQVLVNHEWHVLPQESVFRFSFVPVVDGDFLSDTPEALINAGDFHGLQVLVGVVKDEGSYFLVYGAPGFSKDNESLISRAEFLAGVRVGVPQVSDLAAEAVVLHYTDWLHPEDPARLREALSDVVGDHNVVCPVAQLAGRLAAQGARVYAYVFEHRASTLSWPLWMGVPHGYEIEFIFGIPLDPSRNYTAEEKIFAQRLMRYWANFARTGDPNEPRDPKAPQWPPYTAGAQQYVSLDLRPLEVRRGLRAQACAFWNRFLPKLLSATDTLDEAERQWKAEFHRWSSYMVHWKNQFDHYSKQDRCSDL
modifications: PEG-5000, high ratio
- T1/2[…] (circulatory half-life, fast phase, ICR mice, 40 μg/mouse): 0.467 ± 0.083 h
- T1/2β (circulatory half-life, slow phase, ICR mice, 40 μg/mouse): 9 ± 1.17 h
- A (% of total) (fraction removed in first-fast elimination phase, ICR mice, 40 μg/mouse): 46 ± 3 % of total
- B (% of total) (fraction removed in second-slow elimination phase, ICR mice, 40 μg/mouse): 64 ± 3 % of total
- MRT (mean residence time, noncompartmental model, mice): 12.3 ± 1.33 h
- Clearance (noncompartmental model, ICR mice, 40 μg/mouse): 0.22 mL/min/kg

B2: PEGylated BChE (partially sialylated) (conjugate, UniProt P06276 29-602, looked up)
Cholinesterase: EDDIIIATKNGKVRGMNLTVFGGTVTAFLGIPYAQPPLGRLRFKKPQSLTKWSDIWNATKYANSCCQNIDQSFPGFHGSEMWNPNTDLSEDCLYLNVWIPAPKPKNATVLIWIYGGGFQTGTSSLHVYDGKFLARVERVIVVSMNYRVGALGFLALPGNPEAPGNMGLFDQQLALQWVQKNIAAFGGNPKSVTLFGESAGAASVSLHLLSPGSHSLFTRAILQSGSFNAPWAVTSLYEARNRTLNLAKLTGCSRENETEIIKCLRNKDPQEILLNEAFVVPYGTPLSVNFGPTVDGDFLTDMPDILLELGQFKKTQILVGVNKDEGTAFLVYGAPGFSKDNNSIITRKEFQEGLKIFFPGVSEFGKESILFHYTDWVDDQRPENYREALGDVVGDYNFICPALEFTKKFSEWGNNAFFYYFEHRSSKLPWPEWMGVMHGYEIEFVFGLPLERRDNYTKAEEILSRSIVKRWANFAKYGNPNETQNNSTSWPVFKSTEQKYLTLNTESTRIMTKLRAQQCRFWTSFFPKVLEMTGNIDEAEWEWKAGFHRWNNYMMDWKNQFNDYTSKKESCVGL
modifications: PEG; partially sialylated
- circulatory residence time (in words) (mice): significantly increased
